Assay results from PMC13544220, “Glycemic and bodyweight effects of GIPR coding variation reflect differences in surface expression and intrinsic functional impairment” (Science Advances, 2026).

What was measured:
[1] = system: wild-type and variant SNAP-GIPR; assay: Single-concentration GIP cAMP response by HTRF in INS-1 cells; assay type: cell-based, human; conditions: Fig S3E, mean
Experimental: All variants were tested in parallel on each occasion to control for transfection efficiency differences between experiments.

[2] = system: wild-type and variant SNAP-GIPR; assay: Surface SNAP-GIPR expression (SNAP-tag labelling) in AD293 cells; assay type: cell-based, human; conditions: for AD293 Surface: Fig S3E, mean; for Surface SNAP-GIPR expression: sheet Fig 1C;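 on all read-outs here: scaled to the experimental average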
Summary of the method: (§1)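 Surface GIPR is quantified from wide-field images after labelling intact transfected cells with a membrane-impermeant SNAP probe at 500 nM for 10 min at room temperature. Specific signal, corrected for nontransfected cells, is normalized to the experiment-wide average or to wild-type.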

[3] = system: wild-type and variant SNAP-GIPR in Gipr-/- mouse islets; assay: Surface SNAP-GIPR expression in pancreatic islets; assay type: cell-based, human; conditions: Fig 6B
Experimental: Islets were purified from Gipr^−/− mice as described in the “Islet isolation and culture” section. Islets were transduced with adenoviral wild-type or variant SNAP-tagged GIPR constructs (VectorBuilder) per the manufacturer’s instructions. All variants were tested in parallel on each occasion to control for transduction efficiency. Twenty-four hours posttransduction, whole, intact islets were labeled with SNAP-Surface Alexa Fluor 647 for 15 min at 37°C. Following labeling, the islets were placed in a drop of PBS in the center of a glass-bottom MatTek dish and imaged on a Zeiss LSM 780 inverted confocal microscope fitted with a 63X/1.4 NA oil immersion objective. Receptor surface levels were quantified in Fiji using a macro using full width at half maximum (FWHM) designed by the Facility for Imaging and Light Microscopy (FILM) at Imperial College London and expressed relative to wild-type GIPR. In additional experiments, islets transduced as above and labeled with SNAP-Surface-647 were fixed in 4% paraformaldehyde, permeabilized in 0.5% (v/v) Triton X-100 in PBS (15 min), washed once with PBS and incubated in blocking buffer (PBS and 1% BSA) for 1 hour, and incubated overnight at 4°C in primary antibodies against insulin (1:50; Dako IR002, Agilent Technologies) and glucagon (1:500; G2654, Sigma-Aldrich) in blocking buffer.

[4] = system: wild-type and variant SNAP-GIPR in Gipr-/- mouse islets; assay: Glucagon secretion from Gipr-/- mouse islets transduced with GIPR adenoviruses; assay type: cell-based; conditions: Fig S6C, Gipr-/- mouse islets
Experimental: (§2) Isolated islets used for insulin secretion assays were treated in 1.5-ml microcentrifuge tubes. Eight-ten islets were used per well with two-three technical replicates per condition. […] At the end of the treatment, supernatants containing the secreted insulin or glucagon were collected, centrifuged at 1000g for 5 min, and transferred to fresh tubes. […] The lysates were sonicated 3× for 10 s in a water bath and centrifuged at 10,000g for 10 min, and the supernatants were collected. The samples were stored at −20°C until the insulin or glucagon concentrations were determined using an Insulin Ultra-Sensitive HTRF Assay kit (62IN2PEG, Revvity) or an HTRF Glucagon Detection Kit (62CGLPEG, Revvity) respectively, according to the manufacturer’s instructions. GraphPad Prism 9.0 was used for the generation of the standard curve and sample concentration extrapolation. The total insulin or glucagon content was calculated by adding the secreted insulin to the insulin content of the lysates, and secretion was reported as the percentage release of total. The percent secretion of islets treated with agonist was normalized to that of islets treated with vehicle and reported as a fold change.

[5] = system: wild-type and variant SNAP-GIPR; assay: Surface SNAP-GIPR expression (SNAP-tag labelling) in INS-1 cells; assay type: cell-based, human; conditions: Fig 4G; Mean
Summary of the method: as §1

[6] = system: wild-type and variant SNAP-GIPR in wild-type mouse islets; assay: Insulin secretion from wild-type mouse islets transduced with GIPR adenoviruses; assay type: cell-based; conditions: Fig 6F
Experimental: as §2, with “The samples were stored at −20°C until the insulin or glucagon concentrations were determined using an Insulin Ultra-Sensitive HTRF Assay kit (62IN2PEG, Revvity) or an HTRF Glucagon Detection Kit (62CGLPEG, Revvity) respectively, according to the manufacturer’s instructions.” left out

B1: E354Q (protein)
chain: RAETGSKGQTAGELYQRWERYRRECQETLAAAEPPSGLACNGSFDMYVCWDYAAPNATARASCPWYLPWHHHVAAGFVLRQCGSDGQWGLWRDHTQCENPEKNEAFLDQRLILERLQVMYTVGYSLSLATLLLALLILSLFRRLHCTRNYIHINLFTSFMLRAAAILSRDRLLPRPGPYLGDQALALWNQALAACRTAQIVTQYCVGANYTWLLVEGVYLHSLLVLVGGSEEGHFRYYLLLGWGAPALFVIPWVIVRYLYENTQCWERNEVKAIWWIIRTPILMTILINFLIFIRILGILLSKLRTRQMRCRDYRLRLARSTLTLVPLLGVHQVVFAPVTEEQARGALRFAKLGFEIFLSSFQGFLVSVLYCFINKEVQSEIRRGWHHCRLRRSLGEEQRQLPERAFRALPSGSGPGEVPTSRGLSSGTLPGPGNEASRELESYC
With B1 the “INS-1 cAMP (100 nM)” value [1] was 1.46, the “AD293 Surface” value ([2]; column repeated, paired with cAMP 100 nM) was 0.7482 and the “AD293 Surface” value ([2]; paired with cAMP 100 pM) was 0.7482. The “Surface SNAP-GIPR expression” value ([2]; replicate 1) was 0.8065, the “Surface SNAP-GIPR expression” value ([2]; replicate 2) was 0.9885 and the “Surface SNAP-GIPR expression” value ([2]; replicate 3) was 0.6105. For the same molecule, the “Surface SNAP-GIPR expression” value ([2]; replicate 4) was 0.8642, the “Surface SNAP-GIPR expression” value ([2]; replicate 5) was 0.9388 and the “Surface SNAP-GIPR expression” value ([2]; replicate 6) was 0.763. The “Surface SNAP-GIPR expression” value ([2]; replicate 7) was 0.751, the “Surface SNAP-GIPR expression” value ([2]; replicate 8) was 0.7772 and the “Surface SNAP-GIPR expression” value ([2]; replicate 9) was 0.3807. The “Surface SNAP-GIPR expression” value ([2]; replicate 10) was 0.8583, the “Surface SNAP-GIPR expression” value ([2]; replicate 11) was 0.7525 and the “Surface SNAP-GIPR expression” value ([2]; replicate 12) was 0.8043. The “Surface SNAP-GIPR expression” value ([2]; replicate 13) was 1.071, the “Surface SNAP-GIPR expression” value ([2]; replicate 14) was 0.6911 and the “Surface SNAP-GIPR expression” value ([2]; replicate 15) was 0.7162. For the same molecule, the “Surface SNAP-GIPR expression” value ([2]; replicate 16) was 0.6632, the “Surface SNAP-GIPR expression” value ([2]; replicate 17) was 0.6439 and the “Surface SNAP-GIPR expression” value ([2]; replicate 18) was 0.5804. The “Surface SNAP-GIPR expression” value ([2]; replicate 19) was 0.6207, the “Surface SNAP-GIPR expression” value ([2]; replicate 20) was 0.742 and the “Surface SNAP-GIPR expression” value ([2]; replicate 21) was 0.7392. For the same molecule, the “Surface SNAP-GIPR expression” value ([2]; replicate 22) was 0.5026, the “Surface SNAP-GIPR expression” value ([2]; replicate 23) was 0.762 and the “Surface SNAP-GIPR expression” value ([2]; replicate 24) was 0.7507. The “Surface SNAP-GIPR expression” value ([2]; replicate 25) was 0.8473, the “Surface SNAP-GIPR expression” value ([2]; replicate 26) was 0.7374 and the “Surface SNAP-GIPR expression” value ([2]; replicate 27) was 0.7405. For the same molecule, the “Surface SNAP-GIPR expression” value ([2]; replicate 28) was 0.7355, the “Surface SNAP-GIPR expression” value ([2]; replicate 29) was 0.6896 and the “Surface SNAP-GIPR expression” value ([2]; replicate 30) was 1.162. The “Surface SNAP-GIPR expression” value ([2]; replicate 31) was 0.7254, the “Surface SNAP-GIPR expression” value ([2]; replicate 32) was 0.7792 and the “Surface SNAP-GIPR expression” value ([2]; replicate 33) was 0.8108. For the same molecule, the “Surface SNAP-GIPR expression” value ([2]; replicate 34) was 0.9519, the “Surface SNAP-GIPR expression” value ([2]; replicate 35) was 0.6078 and the “Surface SNAP-GIPR expression” value ([2]; replicate 36) was 0.6218. For the same molecule, the “Surface SNAP-GIPR expression” value ([2]; replicate 37) was 0.8918, the “Surface SNAP-GIPR expression” value ([2]; replicate 38) was 0.4883 and the “Surface SNAP-GIPR expression” value ([2]; replicate 39) was 0.768. For the same molecule, the “Surface SNAP-GIPR expression” value ([2]; replicate 40) was 0.6348, the “Surface SNAP-GIPR expression” value ([2]; replicate 41) was 0.707 and the “Surface SNAP-GIPR expression in pancreatic islets” value ([3]; replicate 1) was 1.913. The “Surface SNAP-GIPR expression in pancreatic islets” value ([3]; replicate 2) was 1.476, the “Surface SNAP-GIPR expression in pancreatic islets” value ([3]; replicate 3) was 1.8301 and the “Surface SNAP-GIPR expression in pancreatic islets” value ([3]; replicate 4) was 2.1125. For the same molecule, the “Surface SNAP-GIPR expression in pancreatic islets” value ([3]; replicate 5) was 2.267, the “Glucagon secretion, ratio G0.5 + GIP / G0.5” value ([4]; replicate 1) was 0.6783 and the “Glucagon secretion, ratio G0.5 + GIP / G0.5” value ([4]; replicate 2) was 1.215. The “Glucagon secretion, ratio G0.5 + GIP / G0.5” value ([4]; replicate 4) was 1.495, the Surface expression [5] was 0.7154 and the “Insulin secretion, ratio G11 + GIP / G11” value ([6]; replicate 1) was 0.7071. The “Insulin secretion, ratio G11 + GIP / G11” value ([6]; replicate 2) was 0.9219, the “Insulin secretion, ratio G11 + GIP / G11” value ([6]; replicate 3) was 0.7382 and the “Insulin secretion, ratio G11 + GIP / G11” value ([6]; replicate 4) was 0.5337. For the same molecule, the “Insulin secretion, ratio G11 + GIP / G11” value ([6]; replicate 5) was 0.4605.
